# Experimental data taken from article PMC11433124.
# Molecular target: hRTL (Chondrilla australiensis tetramer lectin) (Chondrilla australiensis)
# Experiment: SEC + other: SDS-PAGE; gel permeation chromatography on Shodex KW 402.5-4F (HPLC, 0.33 mL/min) in 50 mM sodium bicarbonate in saline, 60 kDa; SDS-PAGE under non-reducing conditions after 3 min or 20 min heating at 80 °C, 66 kDa and 18 kDa; subunit mass 15,521.11 Da by MALDI-TOF-MS
substance,measurement,value
hRTL (Chondrilla australiensis tetramer lectin) (natural protein),stoichiometry N,4
